# According to publication PMC4596477, “Interaction of Myosin Phosphatase Target Subunit (MYPT1) with Myosin Phosphatase-RhoA Interacting Protein (MRIP): A Role of Glutamic Acids in the Interaction” (PLoS ONE, 2015):
# B1: GST-tagged full-length MRIP: full-length MRIP protein with GST-tag, expressed in bacteria (protein, UniProt Q6WCQ1 1-1025, looked up)
# chain: MSAAKENPCRKFQANIFNKSKCQNCFKPRESHLLNDEDLTQAKPIYGGWLLLAPDGTDFDNPVHRSRKWQRRFFILYEHGLLRYALDEMPTTLPQGTINMNQCTDVVDGEGRTGQKFSLCILTPEKEHFIRAETKEIVSGWLEMLMVYPRTNKQNQKKKRKVEPPTPQEPGPAKVAVTSSSSSSSSSSSIPSAEKVPTTKSTLWQEEMRTKDQPDGSSLSPAQSPSQSQPPAASSLREPGLESKEEESAMSSDRMDCGRKVRVESGYFSLEKTKQDLKAEEQQLPPPLSPPSPSTPNHRRSQVIEKFEALDIEKAEHMETNAVGPSPSSDTRQGRSEKRAFPRKRDFTNEAPPAPLPDASASPLSPHRRAKSLDRRSTEPSVTPDLLNFKKGWLTKQYEDGQWKKHWFVLADQSLRYYRDSVAEEAADLDGEIDLSACYDVTEYPVQRNYGFQIHTKEGEFTLSAMTSGIRRNWIQTIMKHVHPTTAPDVTSSLPEEKNKSSCSFETCPRPTEKQEAELGEPDPEQKRSRARERRREGRSKTFDWAEFRPIQQALAQERVGGVGPADTHEPLRPEAEPGELERERARRREERRKRFGMLDATDGPGTEDAALRMEVDRSPGLPMSDLKTHNVHVEIEQRWHQVETTPLREEKQVPIAPVHLSSEDGGDRLSTHELTSLLEKELEQSQKEASDLLEQNRLLQDQLRVALGREQSAREGYVLQATCERGFAAMEETHQKKIEDLQRQHQRELEKLREEKDRLLAEETAATISAIEAMKNAHREEMERELEKSQRSQISSVNSDVEALRRQYLEELQSVQRELEVLSEQYSQKCLENAHLAQALEAERQALRQCQRENQELNAHNQELNNRLAAEITRLRTLLTGDGGGEATGSPLAQGKDAYELEVLLRVKESEIQYLKQEISSLKDELQTALRDKKYASDKYKDIYTELSIAKAKADCDISRLKEQLKAATEALGEKSPDSATVSGYDIMKSKSNPDFLKKDRSCVTRQLRNIRSKSVIEQVSWDT
# modifications: full-length GST tag
# B2: MRIP: Myosin phosphatase-RhoA interacting protein (protein, UniProt Q6WCQ1 1-1025, looked up)
# chain: B1 chain
# modifications: full-length
# B3: MRIP^724-878: recombinant tag-free MRIP peptide, residues 724–878; CC2-CC4 (protein)
# chain: CERGFAAMEETHQKKIEDLQRQHQRELEKLREEKDRLLAEETAATISAIEAMKNAHREEMERELEKSQRSQISSVNSDVEALRRQYLEELQSVQRELEVLSEQYSQKCLENAHLAQALEAERQALRQCQRENQELNAHNQELNNRLAAEITRLRT
# modifications: left off: chitin-binding domain (IMPACT kit, pTYB12), N-terminal, cleaved
# notes: recombinant tag-free MRIP peptide, residues 724–878; CC2-CC4
# Assays:
# [1] = GST-tag, expressed in bacteria, after affinity purification
# Procedure: Sedimentation velocity was performed over a range of concentrations of MRIP^545-878 (1.5–13.6 μM), MRIP^724-878 (4.7–42.3 μM), and MRIP^724-837 (7.5–67.1 μM) (Fig 2A).
# To elucidate the stoichiometries of the MRIP peptides, the SedAnal program was used for curve fitting (Fig 2B). […] Diffusion contains important information about the shape of the molecule and that information is used in the data analysis. The recovery of samples after centrifugation is essentially 99% of the loading materials. […] The root mean square deviation (RMSD) of the fit was 0.010. […] The RMSD of the fit was 0.008.
# We expressed and purified the MRIP peptide (residues 545–929) and the full-length MRIP protein using a chitin-binding tag and a GST-tag, respectively in bacteria.
# [2] = tested on: full-length MYPT1; conditions: immunoprecipitation and immunoblotting; ref [7],[11],[12]; cited from earlier work
# Text: It is, however, not clear which residues of MRIP are critical for its binding to MYPT1.
# [3] = tested on: CCLR; assay: AUC interaction of MRIP peptides with MYPT1 peptide CCLR (residues 924–1030); format: binding; conditions: equimolar mixtures (MRIP^545-878 14 μM each; MRIP^724-878 30 μM each; MRIP^724-837 67 μM each) and 3-, 9-fold dilutions, pH 7.4, 100 mM KCl, 20°C
# Procedure: AUC was performed to examine the interactions of MRIP^545-878, MRIP^724-878, or MRIP^724-837 individually with the MYPT1 peptide (residues 924–1030) containing a putative coiled coil domain (CC) and the leucine repeat region (LR), designated as CCLR.
# Fig 3 All MRIP peptides bind to the C-terminal region of MYPT1, CCLR (residues 924–1030). Concentration-normalized time derivative g(s*) graphs of the MRIP peptides by themselves and in equimolar mixtures: Lines, CCLR (30 μM); +, individual MRIP peptides by themselves (MRIP^545-878, 14 μM; MRIP^724-878, 50 μM; MRIP^724-837, 67 μM); black filled-in circles, original equimolar mixtures (MRIP^545-878, 14 μM each; MRIP^724-878, 30 μM each; MRIP^724-837, 67 μM each); open circles, 3-fold dilutions; gray filled-in circles, 9-fold dilutions.
# The cDNA fragment encoding MRIP peptides were amplified using a full-length MRIP cDNA as a template with the following primer pairs: MRIP^545-878, 5’-[…]/5’[…]; MRIP^724-878, 5’-[…]/5’-[…]; MRIP^724-837, 5’-[…]/5’-[…]. The PCR products were ligated into pCR2.1-TOPO using the TA cloning system and sequenced in both directions. The IMPACT™ (Intein Mediated Purification with an Affinity Chitin-binding Tag) Kit (New England BioLabs) was used to express peptides in bacteria to obtain tag-free peptides. The PCR amplicon encoding MRIP peptides were fused in frame to the chitin binding domain of pTYB12 vector utilizing the NdeI/EcoRI restriction sites. The expression vectors for the MYPT1 peptides, CCLR (residues 924–1030), CC (residues 924–990), and LR (residues 991–1030) were constructed as described: In the reference literature, CCLR and LR were named CCLZ and LZ, respectively. Recombinant peptides were produced in Escherichia coli strain BL21 (DE3) and purified using chitin beads according to the manufacturer's protocol. For further purification, the eluent from chitin beads was loaded on a Vydac C8 reversed phase column and subjected to HPLC using an acetonitrile gradient. Purity and identity of the peptides were confirmed by polyacrylamide gel electrophoresis (PAGE) and mass spectrometry. […]
# [4] = AUC sedimentation velocity of MRIP peptides alone (molar mass, sedimentation coefficient, oligomeric state); format: physicochemical
# Text: The RMSD of the fit was 0.008.
# The cDNA fragment encoding MRIP peptides were amplified using a full-length MRIP cDNA as a template with the following primer pairs: MRIP^545-878, 5’-[…]/5’[…]; MRIP^724-878, 5’-[…]/5’-[…]; MRIP^724-837, 5’-[…]/5’-[…]. The PCR products were ligated into pCR2.1-TOPO using the TA cloning system and sequenced in both directions. The IMPACT™ (Intein Mediated Purification with an Affinity Chitin-binding Tag) Kit (New England BioLabs) was used to express peptides in bacteria to obtain tag-free peptides. The PCR amplicon encoding MRIP peptides were fused in frame to the chitin binding domain of pTYB12 vector utilizing the NdeI/EcoRI restriction sites. The expression vectors for the MYPT1 peptides, CCLR (residues 924–1030), CC (residues 924–990), and LR (residues 991–1030) were constructed as described: In the reference literature, CCLR and LR were named CCLZ and LZ, respectively. Recombinant peptides were produced in Escherichia coli strain BL21 (DE3) and purified using chitin beads according to the manufacturer's protocol. For further purification, the eluent from chitin beads was loaded on a Vydac C8 reversed phase column and subjected to HPLC using an acetonitrile gradient. Purity and identity of the peptides were confirmed by polyacrylamide gel electrophoresis (PAGE) and mass spectrometry. For the mutagenesis study of LR, the wild-type and mutant LR peptides were synthesized, purified by reverse-phase HPLC, and lyophilized to dryness at the peptide core in Boston Biomedical Research Institute.
# Sedimentation velocity experiments were done on a Beckman Instruments Optima XL-I analytical ultracentrifuge equipped with Rayleigh optics. The cells were equipped with sapphire windows and 12 mm charcoal-filled Epon centerpieces. Apparent sedimentation coefficient distribution patterns were computed by the time derivative method. Peptides were dialyzed against 50 mM potassium phosphate buffer (pH 7.4) containing 100 mM KCl, and 1 mM DTT at 4°C overnight and then subjected to AUC at 50,000 rpm and 20°C. Molar mass was computed from sedimentation velocity profiles using SedAnal, which uses a nonlinear least-squares curve fitting algorithm to fit data to solutions of the differential equation (the Lamm equation) describing sedimentation. Fits were performed on time difference data to remove the time-independent systematic baseline components. Values of s and D produced by the fitting procedure were substituted into the Svedberg equation to obtain the molar mass of the protein, M: M=RT/(1−ν¯ρ)s20,wo/D20,wo where ρ is the density of the buffer and ν¯ is the partial specific volume of the protein. Sednterp was employed to compute values of ρ and ν¯ from the amino acid sequence.
# [5] = biological target: LR; assay: SPR, MRIP^724-878 as analyte over immobilized LR; format: binding; conditions: Biacore 3000, 25°C, analyte MRIP^724-878 (dimeric) 85.6–0.7 μM, LR immobilized (244.8 RU), nebulin-derived peptide reference, 50 mM potassium phosphate pH 7.4, 100 mM KCl, steady-state affinity, mean and standard deviation, 6 experiments
# Procedure: Analytes CCLR, CC, LR: Interactions between analytes, CCLR (167–1 μM), CC (318–10 μM), and LR (569–5 μM) with immobilized ligand, MRIP^724-878 (1800 RU) after correction for nonspecific binding using G-actin (2230 RU). Shown is a representative out of 9 experiments for CCLR and 8 for LR in each, duplicates or triplicates. Insets show fittings of steady-state affinity. Ligand LR: Interaction of analyte, MRIP^724-878 (85.6–0.7 μM) with immobilized ligand, LR (244.8 RU) after correction for nonspecific binding using a nebulin-derived peptide (600 RU). Shown is a representative out of 6 experiments.
# This could be explained by the fact that free, solution-based MRIP^724-878 might have preserved homodimers better than the amine coupled. Consequently, we speculated that the MRIP^724-878 dimer might have higher MYPT1-binding affinity than its monomer.
# Binding analyses of SPR were conducted on a Biacore 3000 (GE Healthcare) at 25°C. Sensor chips and reagents for immobilization (1-ethyl-3-(3-dimethylaminopropyl) carbodiimide, N-hydroxyl-succinimide, and ethanolamine) were purchased from GE Healthcare. Peptides were immobilized onto a CM5 sensor chip at 232–5841 resonance units (RU) using amine coupling. Binding studies were done using two-fold serial dilutions of the peptides in 50 mM potassium phosphate buffer (pH 7.4) containing 100 mM KCl. […]
# [6] = AUC of MYPT1 peptides alone (concentration dependence, self-association); format: physicochemical; conditions: CC alone, 107 μM and 3-, 9-fold dilutions, MRIP^724-878 alone, 50 μM and 3-, pH 7.4, 20°C
# Text: To determine the minimal MRIP-binding region of MYPT1, AUC was employed to examine interactions between sub-domains of CCLR, CC (residues 924–990) and LR (residues 991–1030) with MRIP^724-878 (Fig 4A). CC is the putative coiled coil domain and LR contains 16 upstream amino acid residues (residues 991–1006) in addition to the leucine repeat (residues 1007–1028). MRIP^724-878 was chosen because of its good fit to a single component, single-species model. […] Global fitting of the mixture to a two-component model produced a good fit and the RMSD of the fit was 0.010 (Fig 4B; Fitting of CC).
# Fig 4 LR contains sufficient residues for the MYPT1/MRIP interaction. […] CC; Concentration-normalized time derivative g(s*) plots of CC, MRIP^724-878, and equimolar mixtures of the two peptides: Black filled-in circles, an original CC alone (107 μM); dark gray filled-in circles, a 3-fold dilution of CC alone; light gray filled-in circles, a 9-fold dilution of CC alone; black filled-in triangles, an original MRIP^724-878 alone (50 μM); dark gray filled-in triangles, a 3-fold dilution of MRIP^724-878 alone; light gray filled-in triangles, a 9-fold dilution of MRIP^724-878 alone; a black line, an original equimolar mixture of MRIP^724-878/CC (50 μM each): a dark gray line, a 3-fold dilution of the mixture; a light gray line, a 9-fold dilution of the mixture. […]
molecule,measurement,setting,value
B1,precipitation,[1],precipitated after affinity purification
B2,interaction with full-length MYPT1,[2],interacts with the full-length MYPT1
B3,binding to CCLR (shift in g(s*) curves),[3],bind to CCLR
same,molar mass,"[4]; AUC sedimentation velocity, SedAnal global fit to single component, single-species ideal model, 4.7–42.3 μM, 50 mM potassium phosphate pH 7.4, 100 mM KCl, 1 mM DTT, 20°C, CL 0.95",38.2±0.3 kDa
same,oligomeric state in solution,"[4]; AUC sedimentation velocity, pH 7.4, 100 mM KCl, 20°C",forms a tight dimer in solution
same,sedimentation coefficient,"[4]; AUC sedimentation velocity, single component, single-species ideal model, 4.7–42.3 μM, pH 7.4, 100 mM KCl, 20°C, CL 0.95",2.007±0.002 S
same,concentration dependence of g(s*) curves,"[4]; AUC, MRIP^545-878 1.5–13.6 μM, MRIP^724-878 4.7–42.3 μM, MRIP^724-837 7.5–67.1 μM, pH 7.4, 20°C",no-concentration dependence and the presence of one species in solution
same,Kd,[5],40 ± 19 µM
same,concentration dependence of g(s*) curves,[6],"superimposable, indicating concentration-independence"
